Measured values reported in patent publication US20220144956A1 (published 2022).
Changes are numbered by the printed parent chain.

B1: H1.59 L1 XENP34515 (antibody, V domains shown)
VH: QLQVQESGPGLVKPSETLSLTCTVSGGSISNSYFSWGWIRQPPGKGLEWIGSFYYGENTYYNPSLKSRATISIDTSKSQFSLKLSSVTAADTAVYYCPRGPTMIRGVIDSWGQGTLVTVSS
VL: EIVLTQSPATLSLSPGERATLSCRASQSVRSYLAWYQQKPGQAPRLLIYDASNRATGIPARFSGSGSGTDFTLTISSLEPEDFAVYYCQQRSNWPPTFGQGTKVEIK
B2: H1.73 L1 XENP34529 (antibody, V domains shown)
VH: B1 VH with N58K, I73V
VL: B1 VL
B3: H1.74 L1 XENP34530 (antibody, V domains shown)
VH: B1 VH with N58K, S78N
VL: B1 VL
B4: H1.76 L1 XENP34532 (antibody, V domains shown)
VH: B1 VH with N58K, A90E
VL: B1 VL
B5: H1.58 L1 XENP34514 (antibody, V domains shown)
VH: B1 VH with N58D
VL: B1 VL
B6: H1.65 L1 XENP34521 (antibody, V domains shown)
VH: B1 VH with N58K, Y60S
VL: B1 VL
B7: H1.71 L1 XENP34527 (antibody, V domains shown)
VH: B1 VH with N58K, A69F
VL: B1 VL
B8: H1.72 L1 XENP34528 (antibody, V domains shown)
VH: B1 VH with N58K, A69V
VL: B1 VL
B9: H1.51 L1 XENP34507 (antibody, V domains shown)
VH: B1 VH with Y54N, N58K
VL: B1 VL
B10: H1.46 L1 XENP34502 (antibody, V domains shown)
VH: B1 VH with F53I, N58K
VL: B1 VL
B11: H1.68 L1 XENP34524 (antibody, V domains shown)
VH: B1 VH with N58K, K66E
VL: B1 VL
B12: H1.63 L1 XENP34519 (antibody, V domains shown)
VH: B1 VH with N58K, Y60H
VL: B1 VL
B13: H1.43 L1 XENP34499 (antibody, V domains shown)
VH: B1 VH with S52T, N58K
VL: B1 VL
B14: H1.49 L1 XENP34505 (antibody, V domains shown)
VH: B1 VH with Y54H, N58K
VL: B1 VL
B15: H1.60 L1 XENP34516 (antibody, V domains shown)
VH: B1 VH with N58S
VL: B1 VL
B16: H1.62 L1 XENP34518 (antibody, V domains shown)
VH: B1 VH with N58K, Y60F
VL: B1 VL
B17: H1.47 L1 XENP34503 (antibody, V domains shown)
VH: B1 VH with F53V, N58K
VL: B1 VL
B18: H1.53 L1 XENP34509 (antibody, V domains shown)
VH: B1 VH with Y55H, N58K
VL: B1 VL
B19: H1.57 L1 XENP34513 (antibody, V domains shown)
VH: B1 VH with E57S, N58K
VL: B1 VL
B20: H1.55 L1 XENP34511 (antibody, V domains shown)
VH: B1 VH with G56S, N58K
VL: B1 VL
B21: H1.70 L1 XENP34526 (antibody, V domains shown)
VH: B1 VH with N58K, S67G
VL: B1 VL
B22: H1.64 L1 XENP34520 (antibody, V domains shown)
VH: B1 VH with N58K, Y60N
VL: B1 VL
B23: H1.39 L1 XENP34495 (antibody, V domains shown)
VH: B1 VH with P42H, N58K
VL: B1 VL
B24: H1.40 L1 XENP34496 (antibody, V domains shown)
VH: B1 VH with I50V, N58K
VL: B1 VL
B25: H1.44 L1 XENP34500 (antibody, V domains shown)
VH: B1 VH with S52V, N58K
VL: B1 VL
B26: H1.66 L1 XENP34522 (antibody, V domains shown)
VH: B1 VH with N58K, N62A
VL: B1 VL
B27: H1.56 L1 XENP34512 (antibody, V domains shown)
VH: B1 VH with E57G, N58K
VL: B1 VL
B28: H1.41 L1 XENP34497 (antibody, V domains shown)
VH: B1 VH with S52E, N58K
VL: B1 VL
B29: H1.75 L1 XENP34531 (antibody, V domains shown)
VH: B1 VH with N58K, K83Q
VL: B1 VL
B30: H1.67 L1 XENP34523 (antibody, V domains shown)
VH: B1 VH with N58K, N62S
VL: B1 VL
B31: H1.69 L1 XENP34525 (antibody, V domains shown)
VH: B1 VH with N58K, K66Q
VL: B1 VL
B32: H1.45 L1 XENP34501 (antibody, V domains shown)
VH: B1 VH with S52Y, N58K
VL: B1 VL
B33: H1 L1.27 XENP34590 (antibody, V domains shown)
VH: B1 VH with N58K
VL: B1 VL with G57S
B34: H1 L1.29 XENP34592 (antibody, V domains shown)
VH: B1 VH with N58K
VL: B1 VL with A60D
B35: H1 L1.37 XENP34600 (antibody, V domains shown)
VH: B1 VH with N58K
VL: B1 VL with R91K
B36: H1 L1.43 XENP34606 (antibody, V domains shown)
VH: B1 VH with N58K
VL: B1 VL with S92N
B37: H1 L1.20 XENP34583 (antibody, V domains shown)
VH: B1 VH with N58K
VL: B1 VL with D50E
B38: H1 L1.23 XENP34586 (antibody, V domains shown)
VH: B1 VH with N58K
VL: B1 VL with N53D
B39: H1 L1.19 XENP34582 (antibody, V domains shown)
VH: B1 VH with N58K
VL: B1 VL with Q42L
B40: H1 L1.11 XENP34574 (antibody, V domains shown)
VH: B1 VH with N58K
VL: B1 VL with S31N
B41: H1 L1.30 XENP34593 (antibody, V domains shown)
VH: B1 VH with N58K
VL: B1 VL with D70E
B42: H1 L1.38 XENP34601 (antibody, V domains shown)
VH: B1 VH with N58K
VL: B1 VL with R91S
B43: H1 L1.25 XENP34588 (antibody, V domains shown)
VH: B1 VH with N58K
VL: B1 VL with N53T
B44: H1 L1.24 XENP34587 (antibody, V domains shown)
VH: B1 VH with N58K
VL: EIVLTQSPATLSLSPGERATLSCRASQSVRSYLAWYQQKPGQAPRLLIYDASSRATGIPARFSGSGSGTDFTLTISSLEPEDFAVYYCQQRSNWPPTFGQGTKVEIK
B45: H1 L1.34 XENP34597 (antibody, V domains shown)
VH: B1 VH with N58K
VL: B1 VL with E79Q, P80S
B46: H1 L1.31 XENP34594 (antibody, V domains shown)
VH: B1 VH with N58K
VL: B1 VL with S77R
B47: H1 L1.33 XENP34596 (antibody, V domains shown)
VH: B1 VH with N58K
VL: B1 VL with P80S

Target: T1, human TGFßRII (antigen of the Octet experiments) (human, UniProt P37173 23-166)
Assay: BLI (Octet)

T1 sequence (P37173 23-166): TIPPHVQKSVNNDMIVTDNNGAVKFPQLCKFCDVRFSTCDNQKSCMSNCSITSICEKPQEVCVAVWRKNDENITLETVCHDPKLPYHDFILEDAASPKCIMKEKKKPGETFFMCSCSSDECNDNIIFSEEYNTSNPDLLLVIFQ

Q: How did the Kd turn out when B1 was run?
A: 507 pM

Q: B2 was tested. Which Kd did it give?
A: 713 pM

Q: Which Kd does the source give for B3 here?
A: 771 pM

Q: With B4 as the binder, how does the Kd read?
A: 829 pM

Q: With B5 as the binder, how does the Kd read?
A: 2490 pM

Q: Which Kd does the source give for B6 here?
A: 15100 pM

Q: How did the Kd turn out when B7 was run?
A: 588 pM

Q: How did the Kd turn out when B8 was run?
A: 420 pM

Q: For B9, which Kd is on record?
A: 35600 pM

Q: How did the Kd turn out when B10 was run?
A: 3200 pM

Q: B11 was tested. Which Kd did it give?
A: 1500 pM

Q: Which Kd does the source give for B12 here?
A: 5280 pM

Q: For B13, which Kd is on record?
A: 627 pM

Q: B14 was tested. Which Kd did it give?
A: 338 pM

Q: How did the Kd turn out when B15 was run?
A: 3860 pM

Q: For B16, which Kd is on record?
A: 1350 pM

Q: Which Kd does the source give for B17 here?
A: 677 pM

Q: Which Kd does the source give for B18 here?
A: 366 pM

Q: Which Kd does the source give for B19 here?
A: 7710 pM

Q: How did the Kd turn out when B20 was run?
A: 348 pM

Q: For B21, which Kd is on record?
A: 789 pM

Q: Which Kd does the source give for B22 here?
A: 5370 pM

Q: B23 was tested. Which Kd did it give?
A: 425 pM

Q: For B24, which Kd is on record?
A: 338 pM

Q: Which Kd does the source give for B25 here?
A: 2950 pM

Q: How did the Kd turn out when B26 was run?
A: 623 pM

Q: For B27, which Kd is on record?
A: 203 pM

Q: For B28, which Kd is on record?
A: 18900 pM

Q: Which Kd does the source give for B29 here?
A: 1180 pM

Q: B30 was tested. Which Kd did it give?
A: 1950 pM

Q: For B31, which Kd is on record?
A: 1410 pM

Q: For B32, which Kd is on record?
A: 1010 pM

Target: T1, human TGFßRII (antigen of the Octet …)
Assay: BLI (Octet)
Remark: another data set of the same source

Q: B33 was tested. Which Kd did it give?
A: 920 pM

Q: How did the Kd turn out when B34 was run?
A: 589 pM

Q: How did the Kd turn out when B35 was run?
A: 2870 pM

Q: B36 was tested. Which Kd did it give?
A: 1080 pM

Q: For B37, which Kd is on record?
A: 2240 pM

Q: With B38 as the binder, how does the Kd read?
A: 479 pM

Q: Which Kd does the source give for B39 here?
A: 905 pM

Q: With B40 as the binder, how does the Kd read?
A: 597 pM

Q: Which Kd does the source give for B41 here?
A: 668 pM

Q: With B42 as the binder, how does the Kd read?
A: 24500 pM

Q: For B43, which Kd is on record?
A: 921 pM

Q: How did the Kd turn out when B44 was run?
A: 644 pM

Q: For B45, which Kd is on record?
A: 1610 pM

Q: With B46 as the binder, how does the Kd read?
A: 706 pM

Q: For B47, which Kd is on record?
A: 873 pM
